Measured values as given in patent publication US20200024330A1.

What was measured:
Assay in all cases: cell-based or functional assay
[1] = biological target: HIV-1 JR-CSF Env K305A (HIV-1 JR-CSF) (UniProt P20871)
[2] = biological target: HIV-1 Env of isolate 92TH021 (clade AE) (HIV-1)
[3] = biological target: HIV-1 Env of isolate MGRM-A-010 (clade A) (HIV-1)
[4] = biological target: aMLV envelope (negative control pseudovirus) (aMLV)
[5] = biological target: HIV-1 Env of isolate 94UG103 (clade A) (HIV-1)
[6] = biological target: HIV-1 Env of isolate 92BR020 (clade B) (HIV-1)
[7] = biological target: HIV-1 Env of isolate MGRM-C-026 (clade C) (HIV-1)
[8] = biological target: HIV-1 Env of isolate MGRM-C-028 (clade C) (HIV-1)
[9] = biological target: HIV-1 Env of isolate CMU02 (clade AE) (HIV-1)
[10] = biological target: HIV-1 NL43 Env (clade B pseudovirus) (HIV-1)
[11] = biological target: HIV-1 MGRM-AG-005 Env (clade AG pseudovirus) (HIV-1)
[12] = biological target: HIV-1 JRFL Env (clade B pseudovirus) (HIV-1)
[13] = biological target: HIV-1 94UG103 Env (clade A pseudovirus) (HIV-1)
[14] = biological target: HIV-1 93IN905 Env (clade C pseudovirus) (HIV-1)
[15] = biological target: HIV-1 MGRM-A-010 Env (pseudovirus) (HIV-1)
[16] = biological target: HIV-1 envelope glycoprotein (Env) of isolate 92BR020, on pseudovirus (HIV-1)
[17] = biological target: HIV-1 Env of isolate CAP45 (HIV-1)
[18] = biological target: HIV-1 Env of isolate ZM249 (HIV-1)
[19] = biological target: HIV-1 Env of isolate THRO.18 (HIV-1)
[20] = biological target: HIV-1 Env of isolate ZM233 (HIV-1)
[21] = biological target: HIV-1 Env of isolate DU156 (HIV-1)
[22] = biological target: HIV-1 Env of isolate REJ04541 (HIV-1)
[23] = biological target: HIV-1 JR-FL Env E168K (pseudovirus) (HIV-1 JR-FL)
[24] = biological target: HIV-1 Env of isolate MGRM-AE-001 (pseudovirus) (HIV-1)
[25] = biological target: HIV-1 Env of isolate MG RM-A-006 (pseudovirus) (HIV-1)
[26] = biological target: HIV-1 Env of isolate 92UG005 (subtype D), on pseudovirus (HIV-1)
[27] = biological target: HIV-1 Env of isolate MG RM-A-012 (pseudovirus) (HIV-1)
[28] = biological target: HIV-1 Env of isolate 98CN009 (subtype CRF07_BC), on pseudovirus (HIV-1)
[29] = biological target: HIV-1 Env of isolate MG RM-A-014 (pseudovirus) (HIV-1)
[30] = biological target: HIV-1 Env of isolate APV_17 (HIV-1)
[31] = biological target: HIV-1 Env of isolate MGRM-D-002 (subtype D), on pseudovirus (HIV-1)
[32] = biological target: HIV-1 Env of isolate 92UG001 (subtype D), on pseudovirus (HIV-1)
[33] = biological target: HIV-1 Env of isolate MGRM-D-004 (subtype D), on pseudovirus (HIV-1)
[34] = biological target: HIV-1 Env of isolate MGRM-AE-005 (pseudovirus) (HIV-1)
[35] = biological target: HIV-1 Env of isolate 92WR020 (pseudovirus) (HIV-1)
[36] = biological target: HIV-1 Env of isolate CMU02 (pseudovirus) (HIV-1)
[37] = biological target: HIV-1 Env of isolate 93TH305 (HIV-1)

Chain of 1443_C16 (PG16) (TCN-116) (antibody) (VH): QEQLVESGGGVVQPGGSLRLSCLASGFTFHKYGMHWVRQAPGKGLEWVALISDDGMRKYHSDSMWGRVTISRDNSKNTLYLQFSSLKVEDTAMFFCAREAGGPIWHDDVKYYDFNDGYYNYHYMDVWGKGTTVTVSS
Chain of 1443_C16 (PG16) (TCN-116) (antibody) (VL): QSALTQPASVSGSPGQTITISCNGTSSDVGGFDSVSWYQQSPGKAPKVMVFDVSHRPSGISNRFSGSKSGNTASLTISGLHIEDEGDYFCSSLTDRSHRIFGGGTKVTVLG

PGT-121 (antibody)
Fold IC50 increase relative to wild-type [1]: 1.9 fold

5147_N06 (PGT-130) (antibody)
neutralization IC50 [2]: 8.2 ng/mL
neutralization IC80 [2]: 0.0261 µg/mL
neutralization IC90 [2]: 0.0513 µg/mL
neutralization IC95 [2]: 0.0963 µg/mL
neutralization IC50 [3]: 5.4 ng/mL
neutralization IC80 [3]: 0.0251 µg/mL
neutralization IC90 [3]: 0.0643 µg/mL
neutralization IC95 [3]: 0.164 µg/mL
neutralization IC50 [4]: > 10 µg/mL
neutralization IC80 [4]: > 10 µg/mL
neutralization IC90 [4]: > 10 µg/mL
neutralization IC95 [4]: > 10 µg/mL
neutralization IC50 [5]: 0.635 µg/mL
neutralization IC80 [5]: > 10 µg/mL
neutralization IC90 [5]: > 10 µg/mL
neutralization IC95 [5]: > 10 µg/mL
neutralization IC50 [6]: 1.12 µg/mL
neutralization IC80 [6]: > 10 µg/mL
neutralization IC90 [6]: > 10 µg/mL
neutralization IC95 [6]: > 10 µg/mL
neutralization IC50 [7]: 0.0173 µg/mL
neutralization IC80 [7]: 0.263 µg/mL
neutralization IC90 [7]: 1.32 µg/mL
neutralization IC95 [7]: 6.13 µg/mL
neutralization IC50 [8]: > 10 µg/mL
neutralization IC80 [8]: > 10 µg/mL
neutralization IC90 [8]: > 10 µg/mL
neutralization IC95 [8]: > 10 µg/mL
neutralization IC50 [9]: > 10 µg/mL
neutralization IC80 [9]: > 10 µg/mL
neutralization IC90 [9]: > 10 µg/mL
neutralization IC95 [9]: > 10 µg/mL

4877_D15 (PGT-122) (antibody)
Neutralization by PGT-122, IC50 [10]: > 10 µg/mL
Neutralization by PGT-122, IC80 [10]: > 10 µg/mL
Neutralization by PGT-122, IC90 [10]: > 10 µg/mL
Neutralization by PGT-122, IC95 [10]: > 10 µg/mL
Neutralization by PGT-122, IC50 [11]: > 10 µg/mL
Neutralization by PGT-122, IC80 [11]: > 10 µg/mL
Neutralization by PGT-122, IC90 [11]: > 10 µg/mL
Neutralization by PGT-122, IC95 [11]: > 10 µg/mL
Neutralization by PGT-122, IC50 [12]: 0.0471 µg/mL
Neutralization by PGT-122, IC80 [12]: 0.166 µg/mL
Neutralization by PGT-122, IC90 [12]: 0.342 µg/mL
Neutralization by PGT-122, IC95 [12]: 0.659 µg/mL
Neutralization by PGT-122, IC50 [13]: 1.46 µg/mL
Neutralization by PGT-122, IC80 [13]: 6.58 µg/mL
Neutralization by PGT-122, IC90 [13]: > 10 µg/mL
Neutralization by PGT-122, IC95 [13]: > 10 µg/mL
Neutralization by PGT-122, IC50 [14]: 0.0138 µg/mL
Neutralization by PGT-122, IC80 [14]: 0.0505 µg/mL
Neutralization by PGT-122, IC90 [14]: 0.108 µg/mL
Neutralization by PGT-122, IC95 [14]: 0.217 µg/mL

5141_B17 (PGT-126) (antibody)
IC50 [15]: 3.3 ng/mL
IC80 [15]: 0.0137 µg/mL
IC90 [15]: 0.0316 µg/mL
IC95 [15]: 0.0687 µg/mL

PGV04 (antibody)
IC50, pseudovirus neutralization [16]: 0.25 µg/mL

1443_C16 (PG16) (TCN-116) (antibody)
IC50, pseudovirus neutralization (TZM-bl) [17]: < 0.01 µg/mL
IC50, pseudovirus neutralization (TZM-bl) [18]: < 0.01 µg/mL
IC50, pseudovirus neutralization (TZM-bl) [19]: 2.19 µg/mL
IC50, pseudovirus neutralization (TZM-bl) [20]: < 0.01 µg/mL
IC50, pseudovirus neutralization (TZM-bl) [21]: < 0.01 µg/mL
IC50, pseudovirus neutralization (TZM-bl) [22]: < 0.01 µg/mL
IC50 (ug/ml), neutralization [23]: 0.006 µg/mL

VRC01 (antibody)
IC50 (µg/mL), pseudovirus neutralization [24]: 0.167 µg/mL
IC50 (µg/mL), pseudovirus neutralization [25]: 0.521 µg/mL
IC50, pseudovirus neutralization [26]: 0.576 µg/mL
IC50 (µg/mL), pseudovirus neutralization [27]: > 50 µg/mL
IC50, pseudovirus neutralization [28]: 0.346 µg/mL
IC50 (µg/mL), pseudovirus neutralization [29]: 0.135 µg/mL
IC50 [30]: 0.477 µg/mL
IC50, pseudovirus neutralization [31]: 0.252 µg/mL
IC50, pseudovirus neutralization [32]: 1.16 µg/mL
IC50, pseudovirus neutralization [33]: 1.25 µg/mL
IC50 (µg/mL), pseudovirus neutralization [34]: 0.029 µg/mL
IC50 (µg/mL), pseudovirus neutralization [35]: 0.13 µg/mL
IC50 (µg/mL), pseudovirus neutralization [36]: 0.515 µg/mL
IC50 [37]: 0.243 µg/mL
